To fix the notation:
B1: SMG5 (parent)
chain: QEKLQVLMAEGLLPAVKVFLDWLR
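Further: lentivirally expressed fusions sorted by FACS into six bins by GFP to DsRed ratio, PSI derived from sequencing read proportions per bin multiplied by bin number.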

The variants in this series derive from B1. The experiment in a line: protein stability index of a GFP-peptide fusion (GPS, HEK-293T) (PSI 1-6); higher = more stable. Conditions: c terminus: a fixed tail appended.
For QEKLQVLMAEGLLPAVKVNLDWLR [F19N], the protein stability index was 1.53.
Consider QEKLQVLMAEGLLPAVKVQLDWLR [F19Q], for which the protein stability index worked out at 2.13.
Turning to QEKLQVLMAEGLLPAVKVLLDWLR [F19L], the protein stability index turned out to be 1.9.
The value for QEKLQVLMAEGLLPAVKVWLDWLR [F19W] was 1.89; that for QEKLQVLMAEGLLPAVKVYLDWLR [F19Y] was 1.6.
The value for QEKLQVLMAEGLLPAVKVMLDWLR [F19M] was 2.48; that for QEKLQVLMAEGLLPAVKVRLDWLR [F19R] was 2.12; that for QEKLQVLMAEGLLPAVKVPLDWLR [F19P] was 2.17.
Next, QEKLQVLMAEGLLPAVKVSLDWLR [F19S]: 2.73.
In the case of QEKLQVLMAEGLLPAVKVFLDWLI [R24I], the protein stability index worked out at 1.93.
The value for QEKLQVLMAEGLLPAVKVFLDWLN [R24N] was 1.92; that for QEKLQVLMAEGLLPAVKVFLDWLW [R24W] was 1.83; that for QEKLQVLMAEGLLPAVKVFLDWLF [R24F] was 2.23.
Next, QEKLQVLMAEGLLPAVKVFLDWLD [R24D]: 2; QEKLQVLMAEGLLPAVKVFLDWLL [R24L]: 2.96.
Next, QEKLQVLMAEGLLPAVKVFLDWLP [R24P]: 3.34; QEKLQVLMAEGLLPAVKVFLDWLM [R24M]: 1.89; QEKLQVLMAEGLLPAVKVFLDWLV [R24V]: 1.67.
QEKLQVLMAEGLLPAVKVFLDWLQ [R24Q]: the protein stability index amounted to 1.75.
Next, QEKLQVLMAEGLLPAVKVFLDWLT [R24T]: 1.88.
QEKLQVLMAEGLLPAVKVFLDWLG [R24G]: the protein stability index came to 1.43.
Next, QEKLQVLMAEGLLPAVKVFLDWLC [R24C]: 1.59.
As for QEKLQVLMAEGLLPAVKVFLDWLH [R24H], the protein stability index was 2.6.
Regarding QEKLQVLMAEGLLPAVKVFLDWLK [R24K], the protein stability index came out at 2.45.
Next, QEKLQVLMAEGLLPAVKVFLDWLS [R24S]: 2.62.
The value for QEKLQVLMAEGLLPAVKVFLDWLY [R24Y] was 1.91.
On to QEKLQVLMAEGLLPAVKVFLDWLA [R24A], for which the protein stability index is 1.21.
The value for QEKLQVLMAEGLLPAVKVFLDWLE [R24E] was 2.5.
Next, QEKLQVLMAEGLLPAVKVFLDMLR [W22M]: 1.57; QEKLQVLMAEGLLPAVKVFLDNLR [W22N]: 2.28; QEKLQVLMAEGLLPAVKVFLDALR [W22A]: 2.8.
The value for QEKLQVLMAEGLLPAVKVFLDPLR [W22P] was 2.26.
QEKLQVLMAEGLLPAVKVFLDCLR [W22C]: the protein stability index stood at 1.99.
On to QEKLQVLMAEGLLPAVKVFLDTLR [W22T], for which the protein stability index is 1.91.
The value for QEKLQVLMAEGLLPAVKVFLDELR [W22E] was 2.05; that for QEKLQVLMAEGLLPAVKVFLDVLR [W22V] was 1.62; that for QEKLQVLMAEGLLPAVKVFLDHLR [W22H] was 2.73.
Next, QEKLQVLMAEGLLPAVKVFLDILR [W22I]: 1.96.
Consider QEKLQVLMAEGLLPAVKVFLDRLR [W22R], for which the protein stability index was determined as 1.95.
The value for QEKLQVLMAEGLLPAVKVFLDGLR [W22G] was 2.63; that for QEKLQVLMAEGLLPAVKVFLDKLR [W22K] was 2.53.
The value for QEKLQVLMAEGLLPAVKVFLDQLR [W22Q] was 2.38; that for QEKLQVLMAEGLLPAVKVFLDYLR [W22Y] was 2.13; that for QEKLQVLMAEGLLPAVKVFLDLLR [W22L] was 2.47.
Take QEKLQVLMAEGLLPAVKVFLDFLR [W22F]: the protein stability index worked out at 2.09.
The value for QEKLQVLMAEGLLPAVKVFLDSLR [W22S] was 2.17; that for QEKLQVLMAEGLLPAVKVFLYWLR [D21Y] was 3.03; that for QEKLQVLMAEGLLPAVKVFLEWLR [D21E] was 1.33.
Next, QEKLQVLMAEGLLPAVKVFLIWLR [D21I]: 2.5.
Next, QEKLQVLMAEGLLPAVKVFLGWLR [D21G]: 2.04.
As for QEKLQVLMAEGLLPAVKVFLCWLR [D21C], the protein stability index amounted to 1.68.
For QEKLQVLMAEGLLPAVKVFLLWLR [D21L], the protein stability index worked out at 2.2.
The value for QEKLQVLMAEGLLPAVKVFLKWLR [D21K] was 2.54; that for QEKLQVLMAEGLLPAVKVFLMWLR [D21M] was 2.04.
Next, QEKLQVLMAEGLLPAVKVFLPWLR [D21P]: 1.65.
The value for QEKLQVLMAEGLLPAVKVFLNWLR [D21N] was 2.6.
On to QEKLQVLMAEGLLPAVKVFLTWLR [D21T], for which the protein stability index amounted to 2.98.
As to QEKLQVLMAEGLLPAVKVFLAWLR [D21A], the protein stability index amounted to 2.05.
Next, QEKLQVLMAEGLLPAVKVFLFWLR [D21F]: 3.72; QEKLQVLMAEGLLPAVKVFLHWLR [D21H]: 3.17; QEKLQVLMAEGLLPAVKVFYDWLR [L20Y]: 1.54.
Consider QEKLQVLMAEGLLPAVKVFVDWLR [L20V], for which the protein stability index was found to be 1.4.
The value for QEKLQVLMAEGLLPAVKVFSDWLR [L20S] was 2.73; that for QEKLQVLMAEGLLPAVKVFIDWLR [L20I] was 2.02; that for QEKLQVLMAEGLLPAVKVFMDWLR [L20M] was 2.64.
The value for QEKLQVLMAEGLLPAVKVFADWLR [L20A] was 3.26; that for QEKLQVLMAEGLLPAVKVFPDWLR [L20P] was 1.76; that for QEKLQVLMAEGLLPAVKVFKDWLR [L20K] was 1.41.
The value for QEKLQVLMAEGLLPAVKVFRDWLR [L20R] was 1.58; that for QEKLQVLMAEGLLPAVKVFDDWLR [L20D] was 1.59; that for QEKLQVLMAEGLLPAVKVFWDWLR [L20W] was 2.29.
Consider QEKLQVLMAEGLLPAVKVFFDWLR [L20F], for which the protein stability index worked out at 2.52.
Turning to QEKLQVLMAEGLLPAVKVFGDWLR [L20G], the protein stability index was determined as 1.77.
The value for QEKLQVLMAEGLLPAVKVFEDWLR [L20E] was 1.7; that for QEKLQVLMAEGLLPAVKVFTDWLR [L20T] was 3.12; that for QEKLQVLMAEGLLPAVKVFCDWLR [L20C] was 3.11.
The value for QEKLQVLMAEGLLPAVKVFQDWLR [L20Q] was 2.02; that for QEKLQVLMAEGLLPAVKVFLDWRR [L23R] was 2.38; that for QEKLQVLMAEGLLPAVKVFLDWPR [L23P] was 2.21.
Next, QEKLQVLMAEGLLPAVKVFLDWIR [L23I]: 2.39.
With QEKLQVLMAEGLLPAVKVFLDWAR [L23A], the protein stability index worked out at 1.72.
The value for QEKLQVLMAEGLLPAVKVFLDWQR [L23Q] was 1.91; that for QEKLQVLMAEGLLPAVKVFLDWVR [L23V] was 1.67; that for QEKLQVLMAEGLLPAVKVFLDWDR [L23D] was 2.75.
For QEKLQVLMAEGLLPAVKVFLDWER [L23E], the protein stability index was 1.26.
Next, QEKLQVLMAEGLLPAVKVFLDWNR [L23N]: 2.58; QEKLQVLMAEGLLPAVKVFLDWTR [L23T]: 1.19.
The value for QEKLQVLMAEGLLPAVKVFLDWKR [L23K] was 1.83; that for QEKLQVLMAEGLLPAVKVFLDWCR [L23C] was 1.08.
Turning to QEKLQVLMAEGLLPAVKVFLDWGR [L23G], the protein stability index was determined as 2.66.
The value for QEKLQVLMAEGLLPAVKVFLDWFR [L23F] was 2.67; that for QEKLQVLMAEGLLPAVKVFLDWYR [L23Y] was 1.97; that for QEKLQVLMAEGLLPAVKVFLDWSR [L23S] was 2.57.
In the case of QEKLQVLMAEGLLPAVKVFLDWWR [L23W], the protein stability index was determined as 1.7.

These data come from the supplement of paper PMC10567573.
